Legend:
plasma kallikrein (pKal) = target: T1, plasma kallikrein (pKal) (UniProt P03952 20-390; P03952 391-638, limits assumed); test: enzyme inhibition, corrected Ki,app
T1 construct: the description speaks of human pKal; also called active pKal

Factor XIIa (FXIIa) = target: T2, Factor XIIa (FXIIa) (UniProt P00748 20-372; P00748 373-615, limits assumed); test: enzyme inhibition, corrected Ki,app
T2 construct: the description speaks of human FXIIa; also called active Factor XII
T2 sequence (looked up) 1: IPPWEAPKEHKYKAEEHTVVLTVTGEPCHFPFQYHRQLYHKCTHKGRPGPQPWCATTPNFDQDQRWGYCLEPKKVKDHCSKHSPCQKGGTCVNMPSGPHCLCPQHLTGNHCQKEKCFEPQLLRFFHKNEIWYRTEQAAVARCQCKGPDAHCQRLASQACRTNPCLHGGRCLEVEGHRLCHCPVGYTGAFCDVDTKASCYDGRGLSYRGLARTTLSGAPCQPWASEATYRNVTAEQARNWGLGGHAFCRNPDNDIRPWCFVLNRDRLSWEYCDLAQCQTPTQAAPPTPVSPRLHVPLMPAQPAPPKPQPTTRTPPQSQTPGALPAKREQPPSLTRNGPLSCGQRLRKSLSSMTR
T2 sequence (looked up) 2: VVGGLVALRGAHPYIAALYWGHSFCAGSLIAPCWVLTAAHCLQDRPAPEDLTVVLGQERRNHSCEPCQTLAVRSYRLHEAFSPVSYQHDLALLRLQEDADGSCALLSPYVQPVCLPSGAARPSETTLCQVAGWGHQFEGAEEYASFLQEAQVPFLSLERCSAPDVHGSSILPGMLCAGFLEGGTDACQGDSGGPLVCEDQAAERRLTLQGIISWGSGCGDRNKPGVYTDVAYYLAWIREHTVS

T1 sequence (P03952 20-390 limits assumed, form in doubt, chain 1 of 2): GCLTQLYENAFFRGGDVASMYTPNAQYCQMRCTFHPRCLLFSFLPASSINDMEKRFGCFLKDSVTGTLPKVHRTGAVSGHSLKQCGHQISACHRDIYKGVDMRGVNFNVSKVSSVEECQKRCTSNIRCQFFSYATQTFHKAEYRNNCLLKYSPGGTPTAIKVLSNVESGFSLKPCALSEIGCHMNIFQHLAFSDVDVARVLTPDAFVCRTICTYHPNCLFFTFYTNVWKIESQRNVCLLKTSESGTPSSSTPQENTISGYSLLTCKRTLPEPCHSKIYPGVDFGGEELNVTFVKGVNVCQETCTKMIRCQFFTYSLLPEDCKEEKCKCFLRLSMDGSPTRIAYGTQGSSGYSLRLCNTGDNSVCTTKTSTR
T1 sequence (P03952 391-638 limits assumed, form in doubt, chain 2 of 2): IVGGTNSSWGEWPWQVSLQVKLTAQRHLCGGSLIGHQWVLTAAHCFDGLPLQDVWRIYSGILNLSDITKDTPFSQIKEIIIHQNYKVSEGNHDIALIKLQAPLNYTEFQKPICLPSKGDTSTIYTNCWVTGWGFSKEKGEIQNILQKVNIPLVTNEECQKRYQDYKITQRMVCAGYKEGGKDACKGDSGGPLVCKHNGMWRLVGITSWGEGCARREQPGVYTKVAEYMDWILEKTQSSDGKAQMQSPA

Binder	Ki (plasma kallikrein (pKal))	Ki (Factor XIIa (FXIIa))
620I-X0136-C05 (bispecific antibody, also called 620I-X136-C05) heavy: not shown light: DIQMTQSPSTLSASVGDRVTITCRASQSISSWLAWYQQKPGKAPKLLIYKASTLESGVPSRFSGSGSGTEFTLTISSLQPDDFATYYCQQYNTYWTFGQGTKVEIKRTVAAPSVFIFPPSDEQLKSGTASVVCLLNNFYPREAKVQWKVDNALQSGNSQESVTEQDSKDSTYSLSSTLTLSKADYEKHKVYACEVTHQGLSSPVTKSFNRGEC	0.15 nM	0.058 nM
620I-X0136-A01 (bispecific antibody, also called 620I-X136-A01) heavy: not shown light: DIQMTQSPSTLSASVGDRVTITCRASQSISSWLAWYQQKPGKAPKLLIYKASTLESGVPSRFSGSGSGTEFTLTISSLQPDDFATYYCQQYNTYWTFGQGTKVEIKRTVAAPSVFIFPPSDEQLKSGTASVVCLLNNFYPREAKVQWKVDNALQSGNSQESVTEQDSKDSTYSLSSTLTLSKADYEKHKVYACEVTHQGLSSPVTKSFNRGEC	0.135 nM	0.224 nM
620I-X0136-A02 (bispecific antibody, also called 620I-X136-A02) heavy: not shown light: DIQMTQSPSTLSASVGDRVTITCRASQSISSWLAWYQQKPGKAPKLLIYKASTLESGVPSRFSGSGSGTEFTLTISSLQPDDFATYYCQQYNTYWTFGQGTKVEIKRTVAAPSVFIFPPSDEQLKSGTASVVCLLNNFYPREAKVQWKVDNALQSGNSQESVTEQDSKDSTYSLSSTLTLSKADYEKHKVYACEVTHQGLSSPVTKSFNRGEC	0.176 nM	0.136 nM
620I-X0136-A04 (bispecific antibody, also called 620I-X136-A04) heavy: not shown light: DIQMTQSPSTLSASVGDRVTITCRASQSISSWLAWYQQKPGKAPKLLIYKASTLESGVPSRFSGSGSGTEFTLTISSLQPDDFATYYCQQYNTYWTFGQGTKVEIKRTVAAPSVFIFPPSDEQLKSGTASVVCLLNNFYPREAKVQWKVDNALQSGNSQESVTEQDSKDSTYSLSSTLTLSKADYEKHKVYACEVTHQGLSSPVTKSFNRGEC	0.171 nM	0.23 nM
620I-X0136-A05 (bispecific antibody, also called 620I-X136-A05) heavy: not shown light: DIQMTQSPSTLSASVGDRVTITCRASQSISSWLAWYQQKPGKAPKLLIYKASTLESGVPSRFSGSGSGTEFTLTISSLQPDDFATYYCQQYNTYWTFGQGTKVEIKRTVAAPSVFIFPPSDEQLKSGTASVVCLLNNFYPREAKVQWKVDNALQSGNSQESVTEQDSKDSTYSLSSTLTLSKADYEKHKVYACEVTHQGLSSPVTKSFNRGEC	0.179 nM	0.111 nM
620I-X0136-A11 (bispecific antibody, also called 620I-X136-A11) heavy: not shown light: DIQMTQSPSTLSASVGDRVTITCRASQSISSWLAWYQQKPGKAPKLLIYKASTLESGVPSRFSGSGSGTEFTLTISSLQPDDFATYYCQQYNTYWTFGQGTKVEIKRTVAAPSVFIFPPSDEQLKSGTASVVCLLNNFYPREAKVQWKVDNALQSGNSQESVTEQDSKDSTYSLSSTLTLSKADYEKHKVYACEVTHQGLSSPVTKSFNRGEC	0.199 nM	0.193 nM
620I-X0136-A12 (bispecific antibody, also called 620I-X136-A12) heavy: not shown light: DIQMTQSPSTLSASVGDRVTITCRASQSISSWLAWYQQKPGKAPKLLIYKASTLESGVPSRFSGSGSGTEFTLTISSLQPDDFATYYCQQYNTYWTFGQGTKVEIKRTVAAPSVFIFPPSDEQLKSGTASVVCLLNNFYPREAKVQWKVDNALQSGNSQESVTEQDSKDSTYSLSSTLTLSKADYEKHKVYACEVTHQGLSSPVTKSFNRGEC	0.234 nM	0.304 nM
620I-X0136-B02 (bispecific antibody, also called 620I-X136-B02) heavy: not shown light: DIQMTQSPSTLSASVGDRVTITCRASQSISSWLAWYQQKPGKAPKLLIYKASTLESGVPSRFSGSGSGTEFTLTISSLQPDDFATYYCQQYNTYWTFGQGTKVEIKRTVAAPSVFIFPPSDEQLKSGTASVVCLLNNFYPREAKVQWKVDNALQSGNSQESVTEQDSKDSTYSLSSTLTLSKADYEKHKVYACEVTHQGLSSPVTKSFNRGEC	0.21 nM	2.86 nM
620I-X0136-B07 (bispecific antibody, also called 620I-X136-B07) heavy: not shown light: DIQMTQSPSTLSASVGDRVTITCRASQSISSWLAWYQQKPGKAPKLLIYKASTLESGVPSRFSGSGSGTEFTLTISSLQPDDFATYYCQQYNTYWTFGQGTKVEIKRTVAAPSVFIFPPSDEQLKSGTASVVCLLNNFYPREAKVQWKVDNALQSGNSQESVTEQDSKDSTYSLSSTLTLSKADYEKHKVYACEVTHQGLSSPVTKSFNRGEC	0.168 nM	0.099 nM
620I-X0136-B11 (bispecific antibody, also called 620I-X136-B11) heavy: not shown light: DIQMTQSPSTLSASVGDRVTITCRASQSISSWLAWYQQKPGKAPKLLIYKASTLESGVPSRFSGSGSGTEFTLTISSLQPDDFATYYCQQYNTYWTFGQGTKVEIKRTVAAPSVFIFPPSDEQLKSGTASVVCLLNNFYPREAKVQWKVDNALQSGNSQESVTEQDSKDSTYSLSSTLTLSKADYEKHKVYACEVTHQGLSSPVTKSFNRGEC	0.172 nM	0.184 nM
620I-X0136-C01 (bispecific antibody, also called 620I-X136-C01) heavy: not shown light: DIQMTQSPSTLSASVGDRVTITCRASQSISSWLAWYQQKPGKAPKLLIYKASTLESGVPSRFSGSGSGTEFTLTISSLQPDDFATYYCQQYNTYWTFGQGTKVEIKRTVAAPSVFIFPPSDEQLKSGTASVVCLLNNFYPREAKVQWKVDNALQSGNSQESVTEQDSKDSTYSLSSTLTLSKADYEKHKVYACEVTHQGLSSPVTKSFNRGEC	0.173 nM	0.957 nM
620I-X0136-C04 (bispecific antibody, also called 620I-X136-C04) heavy: not shown light: DIQMTQSPSTLSASVGDRVTITCRASQSISSWLAWYQQKPGKAPKLLIYKASTLESGVPSRFSGSGSGTEFTLTISSLQPDDFATYYCQQYNTYWTFGQGTKVEIKRTVAAPSVFIFPPSDEQLKSGTASVVCLLNNFYPREAKVQWKVDNALQSGNSQESVTEQDSKDSTYSLSSTLTLSKADYEKHKVYACEVTHQGLSSPVTKSFNRGEC	0.205 nM	0.189 nM
620I-X0136-C07 (bispecific antibody, also called 620I-X136-C07) heavy: not shown light: DIQMTQSPSTLSASVGDRVTITCRASQSISSWLAWYQQKPGKAPKLLIYKASTLESGVPSRFSGSGSGTEFTLTISSLQPDDFATYYCQQYNTYWTFGQGTKVEIKRTVAAPSVFIFPPSDEQLKSGTASVVCLLNNFYPREAKVQWKVDNALQSGNSQESVTEQDSKDSTYSLSSTLTLSKADYEKHKVYACEVTHQGLSSPVTKSFNRGEC	0.182 nM	0.699 nM
620I-X0136-C08 (bispecific antibody, also called 620I-X136-C08) heavy: not shown light: DIQMTQSPSTLSASVGDRVTITCRASQSISSWLAWYQQKPGKAPKLLIYKASTLESGVPSRFSGSGSGTEFTLTISSLQPDDFATYYCQQYNTYWTFGQGTKVEIKRTVAAPSVFIFPPSDEQLKSGTASVVCLLNNFYPREAKVQWKVDNALQSGNSQESVTEQDSKDSTYSLSSTLTLSKADYEKHKVYACEVTHQGLSSPVTKSFNRGEC	0.216 nM	1.23 nM
620I-X0136-C09 (bispecific antibody, also called 620I-X136-C09) heavy: not shown light: DIQMTQSPSTLSASVGDRVTITCRASQSISSWLAWYQQKPGKAPKLLIYKASTLESGVPSRFSGSGSGTEFTLTISSLQPDDFATYYCQQYNTYWTFGQGTKVEIKRTVAAPSVFIFPPSDEQLKSGTASVVCLLNNFYPREAKVQWKVDNALQSGNSQESVTEQDSKDSTYSLSSTLTLSKADYEKHKVYACEVTHQGLSSPVTKSFNRGEC	0.173 nM	0.09 nM
620I-X0136-C11 (bispecific antibody, also called 620I-X136-C11) heavy: not shown light: DIQMTQSPSTLSASVGDRVTITCRASQSISSWLAWYQQKPGKAPKLLIYKASTLESGVPSRFSGSGSGTEFTLTISSLQPDDFATYYCQQYNTYWTFGQGTKVEIKRTVAAPSVFIFPPSDEQLKSGTASVVCLLNNFYPREAKVQWKVDNALQSGNSQESVTEQDSKDSTYSLSSTLTLSKADYEKHKVYACEVTHQGLSSPVTKSFNRGEC	0.154 nM	0.038 nM
620I-X0136-C12 (bispecific antibody, also called 620I-X136-C12) heavy: not shown light: DIQMTQSPSTLSASVGDRVTITCRASQSISSWLAWYQQKPGKAPKLLIYKASTLESGVPSRFSGSGSGTEFTLTISSLQPDDFATYYCQQYNTYWTFGQGTKVEIKRTVAAPSVFIFPPSDEQLKSGTASVVCLLNNFYPREAKVQWKVDNALQSGNSQESVTEQDSKDSTYSLSSTLTLSKADYEKHKVYACEVTHQGLSSPVTKSFNRGEC	0.217 nM	1.57 nM
620I-X0136-D05 (bispecific antibody, also called 620I-X136-D05) heavy: not shown light: DIQMTQSPSTLSASVGDRVTITCRASQSISSWLAWYQQKPGKAPKLLIYKASTLESGVPSRFSGSGSGTEFTLTISSLQPDDFATYYCQQYNTYWTFGQGTKVEIKRTVAAPSVFIFPPSDEQLKSGTASVVCLLNNFYPREAKVQWKVDNALQSGNSQESVTEQDSKDSTYSLSSTLTLSKADYEKHKVYACEVTHQGLSSPVTKSFNRGEC	0.055 nM	0.013 nM
620I-X0136-A09 (bispecific antibody, human IgG1, kappa, also called 620I-X136-A09) heavy: not shown light: DIQMTQSPSTLSASVGDRVTITCRASQSISSWLAWYQQKPGKAPKLLIYKASTLESGVPSRFSGSGSGTEFTLTISSLQPDDFATYYCQQYNTYWTFGQGTKVEIKRTVAAPSVFIFPPSDEQLKSGTASVVCLLNNFYPREAKVQWKVDNALQSGNSQESVTEQDSKDSTYSLSSTLTLSKADYEKHKVYACEVTHQGLSSPVTKSFNRGEC	0.19 nM	–
620I-X0138-A06 (bispecific antibody, also called 620I-X138-A06) heavy: not shown light: DIQMTQSPSTLSASVGDRVTITCRASQSISSWLAWYQQKPGKAPKLLIYKASTLESGVPSRFSGSGSGTEFTLTISSLQPDDFATYYCQQYNTYWTFGQGTKVEIKRTVAAPSVFIFPPSDEQLKSGTASVVCLLNNFYPREAKVQWKVDNALQSGNSQESVTEQDSKDSTYSLSSTLTLSKADYEKHKVYACEVTHQGLSSPVTKSFNRGEC	0.145 nM	–
